In article PMC6201868, “Significance of a histone-like protein with its native structure for the diagnosis of asymptomatic tuberculosis” (PLoS ONE, 2018):

B1: rN-MDP1 (amino acids 1-100 of mycobacterial DNA-binding protein 1, histidine-tagged) (domain or fragment)
chain: MGMNKAELIDVLTQKLGSDRRQATAAVENVVDTIVRAVHKGDSVTITGFGVFEQRRRAARVARNPRTGETVKVKPTSVPAFRPGAQFKAVVSGAQRLPAE
notes: also called N-terminal half of MDP1

How the values were obtained:
[1] = molecular target: rFull-MDP1 (full-length HIS-tagged recombinant mycobacterial DNA-binding protein 1) (M. tuberculosis) (UniProt P9WMK7); assay: cross-linking
[2] = molecular target: the molecule itself; assay: […], buffer pH 7.0 with 300 mM NaCl, […]

Row | Molecule | stoichiometry N [1] | stoichiometry N [2]
1 | rFull-MDP1 (full-length HIS-tagged recombinant mycobacterial DNA-binding protein 1) (from UniProt P9WMK7 1-216) (natural protein) | 2 | –
2 | B1 | – | 2
